Test: immunohistochemistry, nude mouse xenograft
Details: glycan changed form; control: untransfected CAOV3 cells

B1: CD147: FUT1 transfection (CA-FUT1) (protein)
parent chain: MAAALFVLLGFALLGTHGASGAAGTVFTTVEDLGSKILLTCSLNDSATEVTGHRWLKGGVVLKEDALPGQKTEFKVDSDDQWGEYSCVFLPEPMGTANIQLHGPPRVKAVKSSEHINEGETAMLVCKSESVPPVTDWAWYKITDSEDKALMNGSESRFFVSSSQGRSELHIENLNMEADPGQYRCNGTSSKGSDQAIITLRVRSHLAALWPFLGIVAEVLVLVTIIFIYEKRRKPEDVLDDDDAGSAPLKSSGQHQNDKGKNVRQRNSS
With B1 the expression_or_secretion was “increases”.

— publication PMC5347741
